Sequences and labels used below:
B1: 563E10E12_mIgG2a (antibody)
heavy: EVQLIESGGGLVQPKGSLKLSCAASGFNFNAYAMNWVRQAPGKGLEWVARIRSKSNNFATYYADSVTDRFTISRDDSESMLYLQMNNLKTEDTAMYYCVRHGRRDLLYSMDFWGQGTSVTVSSAKTTAPSVYPLAPVCGDTTGSSVTLGCLVKGYFPEPVTLTWNSGSLSSGVHTFPAVLQSDLYTLSSSVTVTSSTWPSQSITCNVAHPASSTKVDKKIEPRGPTIKPCPPCKCPAPNLLGGPSVFIFPPKIKDVLMISLSPIVTCVVVDVSEDDPDVQISWFVNNVEVHTAQTQTHREDYNSTLRVVSALPIQHQDWMSGKEFKCKVNNKDLPAPIERTISKPKGSVRAPQVYVLPPPEEEMTKKQVTLTCMVTDFMPEDIYVEWTNNGKTELNYKNTEPVLDSDGSYFMYSKLRVEKKNWVERNSYSCSVVHEGLHNHHTTKSFSRTPGK
light: DVVMTQAAFSNPVTLGTSTSISCRSSKSLLHSNGITYLFWYLQKPGQSPQLLIYQMSNLASGVPDRFSGSGSGTDFTLRISRVEAEDVGVYYCAQSLELPLTFGGGTKLEIKRADAAPTVSIFPPSSEQLTSGGASVVCFLNNFYPKDINVKWKIDGSERQNGVLNSWTDQDSKDSTYSMSSTLTLTKDEYERHNSYTCEATHKTSTSPIVKSFNRNEC
notes: also called mIgG2a-subclass chimeric antibody 563E10E12
B2: 589D7C7_mIgG2a (antibody)
heavy: B1 heavy with I5V, T67K, L81V, Q84E
light: B1 light with V2I, T19A, G89A
notes: also called mIgG2a-subclass chimeric antibody 589D7C7
B3: 569D11B5_mIgG2a (antibody)
heavy: B1 heavy with N57D, T67K, D68G, S79N, Y82F
light: B1 light with V2I, T19A
notes: also called mIgG2a-subclass chimeric antibody 569D11B5
B4: 559E1B10_hIgG1 (antibody)
heavy: not shown
light: DIVMTQSPATLSVTPGDRVSLSCRASQSISDYLHWYQQKSHESPRLLLKYVSQSISGIPSRFSGSGSGSDFTLTINSVEPEDVGVYYCQNGHSFPLTFGAGTKLELKRTVAAPSVFIFPPSDEQLKSGTASVVCLLNNFYPREAKVQWKVDNALQSGNSQESVTEQDSKDSTYSLSSTLTLSKADYEKHKVYACEVTHQGLSSPVTKSFNRGEC
notes: also called hIgG1-subclass chimeric antibody 559E1B10
B5: 563E10E12_hzH1L0_VLPLL (antibody, human IgG1, kappa)
heavy: EVQLVESGGGLVQPGGSLKLSCAASGFNFNAYAMNWVRQASGKGLEWVGRIRSKSNNFATYYADSVTDRFTISRDDSKNTAYLQMNSLKTEDTAVYYCVRHGRRDLLYSMDFWGQGTTVTVSSASTKGPSVFPLAPSSKSTSGGTAALGCLVKDYFPEPVTVSWNSGALTSGVHTFPAVLQSSGLYSLSSVVTVPSSSLGTQTYICNVNHKPSNTKVDKKVEPKSCDKTHTCPPCPAPELVGGPSVFLLPPKPKDTLMISRTPEVTCVVVDVSHEDPEVKFNWYVDGVEVHNAKTKPPEEQYNSTLRVVSVLTVLHQDWLNGKEYKCKVSNKALPAPIEKTISKAKGQPREPQVYTLPPSRDELTKNQVSLTCLVKGFYPSDIAVEWESNGQPENNYKTTPLVLDSDGSFFLYSKLTVDKSRWQQGNVFSCSVMHEALHNHYTQKSLSLSPGK
light: DIVMTQSPLSLPVTPGEPASISCRSSKSLLHSNGITYLFWYLQKPGQSPQLLIYQMSNLASGVPDRFSGSGSGTDFTLKISRVEAEDVGVYYCAQSLELPLTFGGGTKVEIKRTVAAPSVFIFPPSDEQLKSGTASVVCLLNNFYPREAKVQWKVDNALQSGNSQESVTEQDSKDSTYSLSSTLTLSKADYEKHKVYACEVTHQGLSSPVTKSFNRGEC
B6: 563E10E12 (antibody, V domains shown)
VH: EVQLIESGGGLVQPKGSLKLSCAASGFNFNAYAMNWVRQAPGKGLEWVARIRSKSNNFATYYADSVTDRFTISRDDSESMLYLQMNNLKTEDTAMYYCVRHGRRDLLYSMDFWGQGTSVTVSS
VL: DVVMTQAAFSNPVTLGTSTSISCRSSKSLLHSNGITYLFWYLQKPGQSPQLLIYQMSNLASGVPDRFSGSGSGTDFTLRISRVEAEDVGVYYCAQSLELPLTFGGGTKLEIK
notes: Murine hybridoma antibody; also called 563E10E12 hybridoma antibody
B7: 589D7C7 (antibody, V domains shown)
VH: B6 VH with I5V, T67K, L81V, Q84E
VL: B6 VL with V2I, T19A, G89A
notes: Murine hybridoma antibody; also called 589D7C7 hybridoma antibody
B8: 569D11B5 (antibody, V domains shown)
VH: B6 VH with N57D, T67K, D68G, S79N, Y82F
VL: B6 VL with V2I, T19A
notes: Murine hybridoma antibody; also called 569D11B5 hybridoma antibody
B9: 559E1B10 (antibody, V domains shown)
VH: KVQLQQSGPVLVKPGASVKMSCKASGYTFTDYYVNWMKQNYGKSPEWIGVINPHNGDTRYNQKFKGKATLTVDKSSSTANMELTSLTSGDSAVYYCASWLRRGYYFDSWGQGTTLTVSS
VL: DIVMTQSPATLSVTPGDRVSLSCRASQSISDYLHWYQQKSHESPRLLLKYVSQSISGIPSRFSGSGSGSDFTLTINSVEPEDVGVYYCQNGHSFPLTFGAGTKLELK
notes: Murine hybridoma antibody; also called 559E1B10 hybridoma antibody
B10: 27B9-1G3 (antibody, V domains shown)
VH: EIQLQQSGPELEKPGASVKISCKASGYSFTGYNMNWVKKSNGKSLEWIGNIDPYYGGTNYNQKFKGKATLTVDKSSSTAYMQLKSLTSEDSAVYYCARETWFITTGVIKKGFYFDYWGQGTTLTVSS
VL: EIVLTQSPTTMAASPGEKITLACSASSIISSNYLHWYQQKPGFSPKLLIYRTSSLASGVPARFSGSGSGTSYSLTIGTMEAEDVATYYCQQGSSIPRTFGGGTKLEIK
notes: Murine hybridoma antibody (supernatant or Protein A purified); also called 27B9-1G3 hybridoma antibody

Numbering of substitutions follows the chain as printed.

The first experiment deals with T1, human CCR8 (human, UniProt P51685 1-355). As to the kind of experiment: cell-based or functional assay.
With B1, the “IC50 of blockade of CCL1-induced β-arrestin recruitment (Tango-H_CCR8-CHO-K1 cells)” value worked out at 0.902 µg/mL.
Same read-out and setting: to B2 belongs 0.993 µg/mL.
B3: the “IC50 of blockade of CCL1-induced β-arrestin recruitment (Tango-H_CCR8-CHO-K1 cells)” value was 0.997 µg/mL.

For another experiment, the target named is T1, human CCR8. As to the kind of experiment: cell-based or functional assay. The source holds these as a separate data set.
As for B4, the “IC50 of blockade of CCL1-induced β-arrestin recruitment” value came out at 10.2 µg/mL.

The next experiment deals with T1, human CCR8. As to the kind of experiment: cell-based or functional assay. The source holds these as a separate data set.
In the case of B4, the “EC50 of activation of Jurkat-human FcγRIIIa(158V)-NFAT with 293F-hCCR8 target cells” value amounted to 0.0401 µg/mL.

The target in a further experiment is T1, human CCR8. In words: cell-based or functional assay. This is another data set of the same source.
With B5, the “EC50 of activation of Jurkat-human FcγRIIIa(158V)-NFAT with 293F-hCCR8 target cells” value is 0.0017 µg/mL.

For the next experiment, the target named is T1, human CCR8. In words: cell-based or functional assay. The source holds these as a separate data set.
B5: the “EC50 of activation of Jurkat-human FcγRIIIa(158V)-NFAT with HuT78 target cells” value was 0.0117 µg/mL.

Another experiment deals with T1, human CCR8. As to the kind of experiment: flow cytometry on 293F-hCCR8 cells. Background: In flow cytometry, cells or beads pass a laser one at a time.
A word on the EC50: it is the concentration at which the effect is half-maximal. Low values mean higher potency in that assay, high ones lower potency in that assay. B6: a half-maximal effect (EC50) was put at 0.195 µg/mL.
On the same count and under the same terms, the same measure for B7: 0.361 µg/mL.
B8 came in with an EC50 of 0.159 µg/mL.
Regarding B9, it took 0.107 µg/mL to reach a half-maximal effect (EC50).
B10 gave an EC50 of 0.15 µg/mL.

The target of a further experiment is T1, human CCR8. In words: flow cytometry on 293F-hCCR8 cells. The source holds these as a separate data set.
Molecule B1 had an EC50 of 0.0833 µg/mL.
B2 gave an EC50 of 0.0947 µg/mL.
Same read-out and setting: to B3 belongs 0.0835 µg/mL.
In turn, B4 registered an EC50 of 0.0617 µg/mL.

In another experiment the target is T1, human CCR8. As to the kind of experiment: flow cytometry on 293F-hCCR8 cells. The source holds these as a separate data set.
B4 showed an EC50 of 0.101 µg/mL.

In the next experiment the target is T2, cynomolgus CCR8 (cynomolgus monkey).
T2 construct: whole, on cells; the constructs of the cell lines are not tied to it word for word; also called cynoCCR8
As to the kind of experiment: flow cytometry on 293T-cynoCCR8 cells.
B6: it took 0.591 µg/mL to reach a half-maximal effect (EC50).
In turn, B7 came in with an EC50 of 0.298 µg/mL.
On to B8, for which the EC50 was 0.444 µg/mL.
B9 registered an EC50 of 0.322 µg/mL.
The molecule B10 yielded an EC50 of 0.146 µg/mL.

Another experiment deals with T2, cynomolgus CCR8. As to the kind of experiment: flow cytometry on 293T-cynoCCR8 cells. This is another data set of the same source.
B1 gave an EC50 of 0.0664 µg/mL.
Molecule B2 showed an EC50 of 0.0662 µg/mL.
For the molecule B3, the EC50 amounted to 0.072 µg/mL.

A further experiment concerns the target T1, human CCR8. As to the kind of experiment: flow cytometry, hybridoma supernatant on CHOK1-hCCR8 cells.
Turning to B6, the MFI was found to be 6370 MFI.
Turning to B7, the MFI amounted to 6120 MFI.
Turning to B8, the MFI came to 5800 MFI.
Turning to B9, the MFI came out at 7350 MFI.
On the same count and under the same terms, the same measure for B10: 2660 MFI.

A further experiment concerns the target T2, cynomolgus CCR8. As to the kind of experiment: flow cytometry, hybridoma supernatant on CHOK1-cynoCCR8 cells.
As for B6, the MFI is 16900 MFI.
On the same count and under the same terms, to B7 belongs 15200 MFI.
In turn, B8 registered an MFI of 13200 MFI.
As for B9, the MFI worked out at 21900 MFI.
B10 returned an MFI of 14000 MFI.

Another experiment deals with T1, human CCR8. As to the kind of experiment: flow cytometry, competition with 10 nM AF647-human CCL1 on 293F-hCCR8 cells.
The IC50 is the concentration needed to halve the response being measured. B6 returned an IC50 of 0.132 µg/mL.
For B7, the IC50 amounted to 0.075 µg/mL.
B8: the concentration for half-maximal inhibition (IC50) worked out at 0.0882 µg/mL.
B9 had an IC50 of 0.0785 µg/mL.
With B10, the concentration for half-maximal inhibition (IC50) was found to be 0.127 µg/mL.

In a further experiment the target is T1, human CCR8. Described as above. The source holds these as a separate data set.
With B1, the IC50 was 0.0411 µg/mL.
The molecule B2 came in with an IC50 of 0.0579 µg/mL.
Consider B3, for which the IC50 came out at 0.0544 µg/mL.
Consider B4, for which the 50% inhibitory concentration (IC50) worked out at 0.0549 µg/mL.

The next experiment concerns the target T1, human CCR8. The description is as above. This is another data set of the same source.
Consider B4, for which the IC50 came to 0.125 µg/mL.

These data come from patent EP4624492A1 (Shanghai Hongcheng Biopharmaceutical Co., Ltd., dated 2025).
